According to patent publication US12385058B2, “Herbicide tolerance protein, encoding gene thereof and use thereof” (Beijing Dabeinong Biotechnology Co., Ltd., priority 2018, dated 2025):
Residue numbers refer to the chain shown, from its start.

Test system: soybean plants
Test: Herbicide tolerance of transgenic soybean T1 plants (spraying, damage degree)
Type: in vivo
Details: sprayed with tribenuron-methyl 144 g ai/ha, eight-fold field concentration
Method: The degree of damage caused by the herbicide was measured for each plant according to the leaf curl degree and the growth point damage degree 3 days after spraying (3 DAT), 7 days after spraying (7 DAT), 14 days after spraying (14 DAT) and 21 days after spraying (21 DAT): the case where the leaves are flat as untreated plants and the growth points are intact is defined as having a damage degree of 0%; the case where veins are locally browned, new leaves are malformed and plant growth is slow is defined as having a damage degree of 50%; and the case where veins are purple, until the whole plant is dead and the growth points are browned and dry is defined as having a damage degree of 100%. The soybean plants into which the ALT02M1-01 nucleotide sequence was introduced were of three strains in total (S1, S2 and S3), the soybean plants into which the ALT02M2-01 nucleotide sequence was introduced were of three strains in total (S4, S5 and S6), the soybean plants into which the ALT02M3-01 nucleotide sequence was introduced were of three strains in total (S7, S8 and S9), the soybean plants into which the ALT02-01 nucleotide sequence was introduced were of three strains in total (S10, S11 and S12), the control soybean plants were of two strains in total (S13 and S14), and the wild-type soybean plants were of one strain in total (CK1); and 10-15 plants were selected from each strain and tested.

B1: ALT02M2-01: nucleotide sequence SEQ ID NO: 29 encoding ALT02M2, based on soybean codon usage bias (nucleic acid)
DNA: ATGGAGACTGATAACGTGGAACTCGCCCAATCTAAGAGAAAGGTGGTGCTGGCTGAACAAGGGTCATTTTACATAGGGGGTAGGACTGTTACTGGTCCTGGCAAGTTTGATCCATCCAAACCTGTGATACCCTACAGTAACGAAGGAGCAACATTCTATATTAACCAAATGTATGTTAACTTCCAGGCCCCAGTGAGACCTAGGGGACTTCCATTGGTTTTCTGGCATGGAGGTGGCTTGACTGGTCACATCTGGGAGTCTACACCTGACGGCAGACCCGGGTTTCAAACCCTCTTCGTTCAGGATAGGCATACCGTGTACACTATTGACCAACCTGGGAGAGGAAGGGGTAACATCCCAACTTTTAACGGACCTTTCGGACAGTTGGAGGAAGAGAGTATTGTTAACACTGTGACAGGAAATGTATCAAAGGAAGGTGCCTGGGTGAGAGATAGGCTTGGCCCTGCTCCCGGGCAATTTTTCGAGAACTCTCAGTTTCCTAGAGGCTATGAAGACAATTACTTTAAGGAGATGGGATTCAGCCCATCTATATCCAGTGATGAAATTGTTGACGCTGTTGTGAAACTCGTGACCCATATTGGTCCTTGTGTTCTGGTGACTCACTCAGCATCCGGCGTTCTTGGGATGAGAGTGGCTACACACGCAAAGAATGTTAGGGGAATTGTGGCCTATGAACCAGCTACCTCAATCTTCCCCAAGGGAAAAGTTCCAGAGATACCACCTCTCGCTGATAAGAAAAGCCAAATCTTTCCCCCATTCGAAATACAGGAGTCTTACTTTAAGAAACTTGCCAAGATTCCAATCCAATTTGTTTTCGGAGATAACATCCCCAAGAATCCAAAATCAGCATATTGGTTCCTGGACTGGTGGAGAGTGACAAGATACGCACATAGTCTCAGCCTGGAGGCCATAAACAAATTGGGGGGACAAGCTTCCCTTTTGGATCTTCCTACTGCAGGATTGAGAGGTAATACACACTTTCCCTTCACCGATAGGAACAATGTTCAGGTGGCTTCTCTCCTGTCAGACTTTCTGGGTAAACACGGTCTGGATCAAAATGAGAGCAAACTCGCCGCCGCCCTGGAATGA
modifications: the ALT02M2-01 nucleotide sequence encoding the amino acid sequence corresponding to the herbicide tolerant protein ALT02M2 and based on the soybean codon usage bias
  herbicide tolerance compared with soybean plants into which ALT02-01 was introduced: significantly increased tolerance to benzenesulfonic acid
  herbicide tolerance imparted to transgenic soybean plants: impart transgenic soybean plants with the tolerance to benzenesulfonic acid

B2: ALT02M3-01: nucleotide sequence SEQ ID NO: 33 encoding ALT02M3, based on soybean codon usage bias (nucleic acid)
DNA: B1 DNA with C131G, C132A, T133G, A134C, G419C, A420C, G436C, T438A
modifications: the ALT02M3-01 nucleotide sequence encoding the amino acid sequence corresponding to the herbicide tolerant protein ALT02M3 and based on the soybean codon usage bias
  herbicide tolerance compared with soybean plants into which ALT02-01 was introduced: significantly increased tolerance to benzenesulfonic acid
  herbicide tolerance imparted to transgenic soybean plants: impart transgenic soybean plants with the tolerance to benzenesulfonic acid
